Assay results published in patent US9163071B2.

What was measured:
[1] = target: NF-κB p65, endogenous in the cells (activated by TNFα) (human) (UniProt Q04206)
[2] = target: NF-κB p65, endogenous in the cells (activated by TNFα) (human) (UniProt Q04206); remark: listed apart in the source
[3] = target: CIAS1-PYD (pyrin only CIAS1 construct) (Homo sapiens (Human)) (UniProt Q96P20)
[4] = target: Myc-ASC (Myc-tagged Apoptosis speck protein containing a CARD) (Homo sapiens (Human)) (UniProt Q9ULZ3)

Substance | TNFα-stimulated 3X-NF-κB-Luc reporter (luciferase) [1] | p65 localization pattern after TNFa treatment (immunofluorescence, cells scored) [2] | percentage of ASC expressing cells containing specks (CIAS1-PYD co-expressed) [3] | percentage of ASC expressing cells containing specks (CIAS1-PYD co-expressed) [4]
FLAG-POP2 (POP2 with an N-terminal Flag epitope in pcDNA 3.1) | 3 fold |  |  | 
GFP-POP2 (GFP fusion of pyrin-only protein 2) |  | 40% | 10% | 10%
